# T1: C. jejuni 81–176 flagella (Campylobacter jejuni strain 81–176, biotin (Sulfo-NHS-LC-LC-biotin), in the SPR only | biotin (Sulfo-NHS-LC-LC-biotin), in the SPR only)
# T1 construct: flagellin FlaA of C. jejuni strain 81–176; flagellin FlaB of C. jejuni strain 81–176; also called flagellin; flagella protein; source: purified from C. jejuni 81–176 (sheared, ultracentrifugation, 1% SDS wash); also on formalin-fixed C. jejuni 81–176 cells
# T1 chain 1: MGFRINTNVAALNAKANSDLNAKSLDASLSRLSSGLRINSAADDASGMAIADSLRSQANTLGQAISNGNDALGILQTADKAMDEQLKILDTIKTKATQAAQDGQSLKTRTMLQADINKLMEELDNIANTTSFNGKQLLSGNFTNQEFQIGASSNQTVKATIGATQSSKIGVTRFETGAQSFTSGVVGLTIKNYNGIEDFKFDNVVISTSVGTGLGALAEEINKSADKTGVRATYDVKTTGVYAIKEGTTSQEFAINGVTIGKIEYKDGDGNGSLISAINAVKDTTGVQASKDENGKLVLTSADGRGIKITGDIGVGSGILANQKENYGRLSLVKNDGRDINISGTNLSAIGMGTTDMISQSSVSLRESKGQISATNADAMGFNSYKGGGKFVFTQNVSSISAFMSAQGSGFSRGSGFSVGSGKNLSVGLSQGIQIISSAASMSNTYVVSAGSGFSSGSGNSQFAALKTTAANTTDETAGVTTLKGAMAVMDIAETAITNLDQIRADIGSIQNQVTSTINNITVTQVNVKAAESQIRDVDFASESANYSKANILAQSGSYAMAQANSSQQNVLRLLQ
# T1 chain 2: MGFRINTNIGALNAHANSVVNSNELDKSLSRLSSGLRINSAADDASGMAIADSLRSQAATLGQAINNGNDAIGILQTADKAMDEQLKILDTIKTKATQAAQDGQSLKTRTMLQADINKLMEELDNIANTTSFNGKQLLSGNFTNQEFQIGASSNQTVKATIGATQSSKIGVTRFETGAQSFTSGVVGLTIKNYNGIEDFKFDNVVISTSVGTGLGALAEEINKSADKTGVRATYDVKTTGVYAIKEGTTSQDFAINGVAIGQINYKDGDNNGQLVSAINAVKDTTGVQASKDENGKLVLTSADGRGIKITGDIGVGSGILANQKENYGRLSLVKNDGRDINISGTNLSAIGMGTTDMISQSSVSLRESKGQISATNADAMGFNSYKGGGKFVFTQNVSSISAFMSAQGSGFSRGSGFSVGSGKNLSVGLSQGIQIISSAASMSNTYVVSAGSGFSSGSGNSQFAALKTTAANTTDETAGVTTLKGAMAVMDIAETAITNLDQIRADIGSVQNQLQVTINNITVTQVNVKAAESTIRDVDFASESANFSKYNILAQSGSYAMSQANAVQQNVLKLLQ
# B1: FlagV1M (monomeric flagella-specific VHH FlagV1) (VHH)
# VHH: QVKLEESGGGLVQAGGSRRLSCATSGLTFRNFHMAWFRQVAGKEREVVAAISWSRDRQYYPDPVKGRFTITRDNAKNTVYLQMNSLKPEDTAVYYCAARTASASGDWYKGSYQYWGQGTQVTVSS
# notes: llama VHH from an immune phage display library; also called FlagV1 VHH; source: E. coli TG1, periplasm, purified (IMAC; Superdex 75 before SPR)
# Experiments:
# [1] = target: T1, C. jejuni 81–176 flagella; test: ELISA; C. jejuni 81–176 flagella coated on Maxisorp plates (5 µg/ml in PBS); monomeric or pentameric VHH at 10 to 0.0001 µg/ml, 1 h at 37°C; detected with anti-His6-HRP; concentration of 50% maximum binding; conditions: both partners purified
# [2] = target: T1, C. jejuni 81–176 flagella; test: SPR; Biacore 3000; biotinylated flagella (700–900 RU) captured on an SA sensor chip; VHHs injected at 40 µl/min; 25°C; 10 mM HEPES pH 7.4, 150 mM NaCl, 3 mM EDTA, 0.005% P20; 1:1 interaction model; conditions: both partners purified
binder,measurement,setting,value
B1,EC50,[1],15.6 nM
same,Kd,[2],20 nM
same,koff,[2],0.002 s⁻¹
same,kon,[2],100000 M⁻¹ s⁻¹

# From publication PMC3877120, “Pentavalent Single-Domain Antibodies Reduce Campylobacter jejuni Motility and Colonization in Chickens” (PLoS ONE, 2013)
